Kd data for one molecule are collected here from US20100293752, “DEVICE FOR DECELERATING THE ROTATION OF A HINGE IN PARTICULAR FOR FURNITURE AND A HINGE PARTICULARLY FOR FURNITURE HAVING SAID DECELERATION DEVICE” (published 2010).

In this data set the target is osteopontin (OPN) (Homo sapiens, UniProt P10451 P10451:17-314). The data set is described as follows: filter; double-filter nitrocellulose, selection buffer, 37 C; OPN species not specified for this assay. The conditions noted are these: label: 5'-32P; stem-loop (predicted, mFold). How it is done: The RNA-protein equilibrium dissociation constant (Kd) of OPN-R3 was characterized using the double-filter nitrocellulose filter binding method (Gopinath, Anal. Bioanal. Chem. 387:171 (2007)). For all binding assays, RNAs were dephosphorylated using bacterial alkaline phosphatase (Invitrogen, Carlsbad, Calif.) and 5′-end labeled using T4 polynucleotide kinase (New England Biolabs, Beverly, Mass.) and γ-³²P-ATP (MP Biomedicals, Solon, Ohio). Direct binding assays were carried out by incubating ³²P-labeled RNA at a concentration of less than 0.1 nM and target protein at concentrations ranging from 300 nM to 10 μM in selection buffer at 37° C. The fraction of RNA bound was quantified with a PhosphorImager (Molecular Dynamics, Sunnyvale, Calif.). Raw binding data were corrected for nonspecific background binding of radiolabeled RNA to the nitrocellulose filter.
Chain of osteopontin (OPN) (P10451 17-314, one chain of several): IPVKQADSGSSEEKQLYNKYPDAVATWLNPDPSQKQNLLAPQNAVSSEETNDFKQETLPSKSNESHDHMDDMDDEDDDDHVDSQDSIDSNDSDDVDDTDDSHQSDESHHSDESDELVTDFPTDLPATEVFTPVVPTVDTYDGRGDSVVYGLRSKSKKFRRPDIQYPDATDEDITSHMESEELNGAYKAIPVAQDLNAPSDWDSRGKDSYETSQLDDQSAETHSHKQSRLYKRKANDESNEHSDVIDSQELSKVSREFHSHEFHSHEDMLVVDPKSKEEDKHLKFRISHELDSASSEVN

Consider CGGCCACAGAAUGAAAAACCUCAUCGAUGUUGCAUAGUUG (ssRNA, 2'-F on all C and U) [OPN-R3 32P-labelled], for which the Kd was 0.018 µM.
